How the values were obtained:
Assay in all cases: pull-down; partially purified recombinant proteins mixed and incubated overnight at 4°C, GSTrap columns, washed with 50 mM Tris pH 7.5, 150 mM NaCl, eluted with 10 mM reduced glutathione; Western blot with anti-His6 antibody, bands quantified with Image J, pulldown by GST-CD-Nef set to 100%
[1] = target: GST-MHC-I CD-Nef (human | HIV-1) (UniProt P03406)
[2] = target: GST-CD(Y320A)-NefLL/AA (human | HIV-1) (UniProt P03406)
[3] = target: GST-CD-Nef E62-65A,LL/AA (human | HIV-1) (UniProt P03406)
[4] = target: GST-CD-Nef M20A,LL/AA (human | HIV-1) (UniProt P03406)
[5] = target: GST-CD-Nef P78A,LL/AA (human | HIV-1) (UniProt P03406)
[6] = target: GST-MHC-I CD-Nef LL/AA (human | HIV-1) (UniProt P03406)

Row | Molecule | pulldown efficiency (% of the pulldown of wild-type μ1 by GST-CD-Nef) [1] | pulldown efficiency (% of the pulldown of μ1 by GST-CD-Nef) [2] | pulldown efficiency (% of the pulldown of μ1 by GST-CD-Nef) [3] | pulldown efficiency (% of the pulldown of μ1 by GST-CD-Nef) [4] | pulldown efficiency (% of the pulldown of μ1 by GST-CD-Nef) [5] | pulldown efficiency (% of the pulldown of μ1 by GST-CD-Nef) [6]
1 | truncated μ1 mutant V392A/L395A (domain or fragment) | 24% | – | – | – | – | –
2 | truncated μ1 mutant F172A/D174S (domain or fragment) | 57% | – | – | – | – | –
3 | μ121 (AP-1 medium subunit μ1, residues 121–423) (domain or fragment) GYPQTTDSKILQEYITQEGHKLETGAPRPPATVTNAVSWRSEGIKYRKNEVFLDVIEAVNLLVSANGNVLRSEIVGSIKMRVFLSGMPELRLGLNDKVLFDNTGRGKSKSVELEDVKFHQCVRLSRFENDRTISFIPPDGEFELMSYRLNTHVKPLIWIESVIEKHSHSRIEYMVKAKSQFKRRSTANNVEIHIPVPNDADSPKFKTTVGSVKWVPENSEIVWSVKSFPGGKEYLMRAHFGLPSVEAEDKEGKPPISVKFEIPYFTTSGIQVRYLKIIEKSGYQALPWVRYITQNGDYQLRTQ | – | 16% | 30% | 53% | 19% | 77%

Source: paper PMC2791223
